# T1: estrogen receptor α (ERα) (human, UniProt P03372 1-595)
# T1 construct: Used as 35S-methionine-labelled protein from rabbit reticulocyte lysate, as purified recombinant ERα, and in whole-cell extract of transfected COS cells; also called NR3A1
# T1 sequence (looked up): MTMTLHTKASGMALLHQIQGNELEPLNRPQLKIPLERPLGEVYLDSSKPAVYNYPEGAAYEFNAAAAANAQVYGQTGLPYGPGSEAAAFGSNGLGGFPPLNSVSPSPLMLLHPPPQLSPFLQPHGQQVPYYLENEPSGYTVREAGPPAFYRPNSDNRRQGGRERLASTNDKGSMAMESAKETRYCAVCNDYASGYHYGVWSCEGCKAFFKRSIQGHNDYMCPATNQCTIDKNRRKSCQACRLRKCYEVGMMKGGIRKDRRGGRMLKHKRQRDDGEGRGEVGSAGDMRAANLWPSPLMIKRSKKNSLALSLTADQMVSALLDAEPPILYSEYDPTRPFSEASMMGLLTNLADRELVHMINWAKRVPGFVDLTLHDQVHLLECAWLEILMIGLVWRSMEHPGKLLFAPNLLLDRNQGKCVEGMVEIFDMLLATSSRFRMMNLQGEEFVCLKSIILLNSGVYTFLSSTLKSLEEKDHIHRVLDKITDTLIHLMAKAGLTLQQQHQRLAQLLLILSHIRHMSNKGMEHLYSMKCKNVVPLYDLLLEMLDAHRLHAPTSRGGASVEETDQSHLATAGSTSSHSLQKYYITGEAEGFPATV
# Target: T1, estrogen receptor α (ERα)
# Assay: GST-fusion protein binding experiment with purified recombinant ERα (data referred to Johnston 1996 thesis)
binder,measurement,value
"GST-TFIIB (other, UniProt Q00403 1-316, looked up, not shown: glutathione S-transferase encoded by the pGEX vector) MASTSRLDALPRVTCPNHPDAILVEDYRAGDMICPECGLVVGDRVIDVGSEWRTFSNDKATKDPSRVGDSQNPLLSDGDLSTMIGKGTGAASFDEFGNSKYQNRRTMSSSDRAMMNAFKEITTMADRINLPRNIVDRTNNLFKQVYEQKSLKGRANDAIASACLYIACRQEGVPRTFKEICAVSRISKKEIGRCFKLILKALETSVDLITTGDFMSRFCSNLCLPKQVQMAATHIARKAVELDLVPGRSPISVAAAAIYMASQASAEKRTQKEIGDIAGVADVTIRQSYRLIYPRAPDLFPTDFKFDTPVDKLPQL",binding result,binds
